Experimental data reported in US20260217813A1 (published 2026).

Key:
[1] = target: T1, human IL-23 (IL-23-His-Biotin, Akesobio, 20161209) (human, UniProt Q9NPF7 20-189; P29460 23-328); assay: FACS competition, IL-23-His-Biotin 2 µg/mL on 293T-IL-12RB1&IL-23R cells, antibody 3.33 µg/mL
T1 construct: His-tagged and biotinylated; also called human IL23-His-Biotin
T1 sequence (looked up) 1: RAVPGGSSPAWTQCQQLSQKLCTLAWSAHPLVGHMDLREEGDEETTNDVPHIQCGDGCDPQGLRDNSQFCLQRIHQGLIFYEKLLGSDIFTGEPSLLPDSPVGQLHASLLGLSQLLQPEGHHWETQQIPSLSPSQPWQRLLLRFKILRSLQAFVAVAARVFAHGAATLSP
T1 sequence (looked up) 2: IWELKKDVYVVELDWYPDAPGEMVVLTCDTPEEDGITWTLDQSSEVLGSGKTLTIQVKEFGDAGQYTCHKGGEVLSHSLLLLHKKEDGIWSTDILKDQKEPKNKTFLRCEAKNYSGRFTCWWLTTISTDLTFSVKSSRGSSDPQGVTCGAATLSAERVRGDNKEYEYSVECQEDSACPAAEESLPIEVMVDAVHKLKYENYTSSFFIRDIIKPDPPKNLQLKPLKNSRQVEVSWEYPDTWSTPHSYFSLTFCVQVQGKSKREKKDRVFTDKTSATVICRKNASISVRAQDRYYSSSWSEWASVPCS
Experimental: (§1) 2.1. […] 200 μL of 1% PBSA was added into each sample, and the mixture was centrifuged at 700×g for 5 min to discard the supernatant. According to experiment design, correspondingly diluted antibody (highest final concentration of 30 μg/mL, 3-fold dilution, 8 concentrations in total) and human IL-23 (IL-23-His-Biotin, Akesobio, 20161209) (final concentration of 2 μg/mL) were mixed at a ratio of 1:1, and a blank control was set. The mixture of antibody and human IL23 was incubated on ice for 30 min and then added to the cell precipitate at 100 μL/sample. The resulting mixture was well mixed and incubated on ice for 60 min. 200 μL of 1% PBSA was added, and the mixture was centrifuged at 700×g for 5 min to discard the supernatant, and then washed twice. FITC Streptavidin (Biolegend, Cat. No.: 405202) was diluted at a ratio of 1:500 and added to each tube at 100 μL. The mixture was well mixed and incubated on ice for 40 min in the absence of light. 200 μL of 1% PBSA was added, and the mixture was centrifuged at 700×g for 5 min to discard the supernatant, and then washed twice. 1% PBSA was added at 200 μL/tube, and the cells were resuspended and transferred to a flow cytometry tube for testing.

[2] = target: T1, human IL-23 (IL-23-His-Biotin, …); assay: FACS competition, IL-23-His-Biotin 2 µg/mL on 293T-IL-12RB1&IL-23R cells, antibody 0.01 µg/mL
Experimental: as §1

[3] = target: T2, IL-12 (Human IL12 (His Tag)), Sino Biological Cat. No. CT-050-H08H-20 (human, UniProt P29460 23-328; P29459 23-219); assay: FACS competition, IL-12-His 20 nM on 293T-IL-12RB1&IL-23R cells, antibody 30 µg/mL
T2 construct: Bought His-tagged p35/p40 heterodimer
T2 sequence (looked up) 1: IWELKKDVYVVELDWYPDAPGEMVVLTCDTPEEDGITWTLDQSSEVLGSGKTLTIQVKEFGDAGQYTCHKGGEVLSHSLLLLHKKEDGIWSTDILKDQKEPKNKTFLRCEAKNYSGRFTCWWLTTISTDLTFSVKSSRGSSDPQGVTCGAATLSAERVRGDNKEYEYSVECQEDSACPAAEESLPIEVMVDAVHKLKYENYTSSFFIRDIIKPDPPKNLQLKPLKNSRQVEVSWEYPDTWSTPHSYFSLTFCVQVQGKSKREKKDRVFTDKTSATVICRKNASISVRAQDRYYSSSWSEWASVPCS
T2 sequence (looked up) 2: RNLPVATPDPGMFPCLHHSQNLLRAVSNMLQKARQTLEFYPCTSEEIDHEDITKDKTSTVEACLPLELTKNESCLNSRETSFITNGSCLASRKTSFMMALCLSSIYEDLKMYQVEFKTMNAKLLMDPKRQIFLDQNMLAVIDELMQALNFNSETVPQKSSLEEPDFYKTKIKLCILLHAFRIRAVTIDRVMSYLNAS
Experimental: (§2) 200 μL of 1% PBSA was added into each sample, and the mixture was centrifuged at 700×g for 5 min to discard the supernatant. According to experiment design, correspondingly diluted antibody (highest final concentration of 30 μg/mL, 3-fold dilution, 8 concentrations in total) and human IL-12 (Sino Biological, Cat. No.: CT-050-H08H-20) (final concentration of 20 nM) were mixed at a ratio of 1:1, and a blank control was set. The mixture of antibody and human IL12 was incubated on ice for 30 min and then added to the cell precipitate at 100 μL/sample. The resulting mixture was well mixed and incubated on ice for 60 min. 200 μL of 1% PBSA was added, and the mixture was centrifuged at 700×g for 5 min to discard the supernatant, and then washed twice. Alexa Fluor® 488 anti-His tag antibody (Biolegend, Cat. No.: 652509) was diluted at a ratio of 1:400 and added to each tube at 100 μL. The mixture was well mixed and incubated on ice for 40 min in the absence of light. 200 μL of 1% PBSA was added, and the mixture was centrifuged at 700×g for 5 min to discard the supernatant, and then washed twice. 1% PBSA was added at 200 μL/tube, and the cells were resuspended and transferred to a flow cytometry tube for testing.

[4] = target: T2, IL-12 (Human IL12 (His Tag)), Sino …; assay: FACS competition, IL-12-His 20 nM on 293T-IL-12RB1&IL-23R cells, antibody 0.37 µg/mL
Experimental: as §2

[5] = target: T2, IL-12 (Human IL12 (His Tag)), Sino …; assay: FACS competition, IL-12-His 20 nM on 293T-IL-12RB1&IL-23R cells, antibody 3.33 µg/mL
Experimental: as §2

[6] = target: T1, human IL-23 (IL-23-His-Biotin, …); assay: FACS competition, IL-23-His-Biotin 2 µg/mL on 293T-IL-12RB1&IL-23R cells, antibody 30 µg/mL
Experimental: as §1

[7] = target: T1, human IL-23 (IL-23-His-Biotin, …); assay: FACS competition, IL-23-His-Biotin 2 µg/mL on 293T-IL-12RB1&IL-23R cells, antibody 0.37 µg/mL
Experimental: as §1

[8] = target: T2, IL-12 (Human IL12 (His Tag)), Sino …; assay: FACS competition, IL-12-His 20 nM on 293T-IL-12RB1&IL-23R cells, antibody 0.01 µg/mL
Experimental: as §2

B1: H5L9 (antibody, human IgG1, kappa, V domains shown)
VH: EVQLVQSGAEVKKPGESLKISCQSSGYSFTTYWIGWVRQMPGQGLEWIGIMSPVDSDIRYNPMFRGQVTMSVDKSSSTAYLQWSSLKASDTAMYYCARRRPGQGYFDFWGQGTMVTVSS
VL: DIQMTQSPSSLSASVGDRVTITCKASQNVGSWLAWYQQKPGKAPKSLIYSASSRQSGVPSRFSGSGSGTDFTLTISSLQPEDFATYYCQQYDIYPFTFGQGTKLEIKR
notes: Humanized anti-human IL-12/IL-23 p40 antibody; IgG1 (P01857) / kappa (P01834) constant regions
- MFI [1]: 153
- MFI [2]: 222
- MFI [3]: 117
- MFI [4]: 159
- MFI [5]: 146
- MFI [6]: 104
- MFI [7]: 206
- MFI [8]: 169

B2: H5L10 (antibody, human IgG1, kappa, V domains shown)
VH: EVQLVQSGAEVKKPGESLKISCQSSGYSFTTYWIGWVRQMPGQGLEWIGIMSPVDSDIRYNPMFRGQVTMSVDKSSSTAYLQWSSLKASDTAMYYCARRRPGQGYFDFWGQGTMVTVSS
VL: EIVLTQSPATLSASPGERATISCRASQSVGSWLAWYQQKPGQAPRSLIYAASNLQSGIPARFSGSGSGTDFTLTISSLEPEDFAVYYCQQYNIYPYTFGQGTRLEIKR
notes: IgG1/kappa
- MFI [1]: 15.7
- MFI [2]: 223
- MFI [3]: 31.6
- MFI [4]: 87.5
- MFI [5]: 40.2
- MFI [6]: 11.9
- MFI [7]: 169
- MFI [8]: 163

B3: H5L14 (antibody, human IgG1, kappa, V domains shown)
VH: EVQLVQSGAEVKKPGESLKISCQSSGYSFTTYWIGWVRQMPGQGLEWIGIMSPVDSDIRYNPMFRGQVTMSVDKSSSTAYLQWSSLKASDTAMYYCARRRPGQGYFDFWGQGTMVTVSS
VL: EIVLTQSPATLSASPGERATISCRASQSVSSWLAWYQQKPGQAPRSLIYAASNLQSGIPARFSGSGSGTDFTLTISSLEPEDFAVYYCQQYNIYPFTFGQGTRLEIKR
notes: IgG1/kappa
- MFI [1]: 23.6
- MFI [2]: 218
- MFI [3]: 34.9
- MFI [4]: 113
- MFI [5]: 51.9
- MFI [6]: 14.1
- MFI [7]: 179
- MFI [8]: 149

B4: H5L11 (antibody, human IgG1, kappa, V domains shown)
VH: EVQLVQSGAEVKKPGESLKISCQSSGYSFTTYWIGWVRQMPGQGLEWIGIMSPVDSDIRYNPMFRGQVTMSVDKSSSTAYLQWSSLKASDTAMYYCARRRPGQGYFDFWGQGTMVTVSS
VL: EIVLTQSPATLSASPGERATISCRASQSVSSWLAWYQQKPGQAPRSLIYSASNLQSGIPARFSGSGSGTDFTLTISSLEPEDFAVYYCQQYNIYPYTFGQGTRLEIKR
notes: IgG1/kappa
- MFI [1]: 20.2
- MFI [2]: 219
- MFI [3]: 33
- MFI [4]: 103
- MFI [5]: 42.2
- MFI [6]: 12.9
- MFI [7]: 179
- MFI [8]: 166

B5: H5L12 (antibody, human IgG1, kappa, V domains shown)
VH: EVQLVQSGAEVKKPGESLKISCQSSGYSFTTYWIGWVRQMPGQGLEWIGIMSPVDSDIRYNPMFRGQVTMSVDKSSSTAYLQWSSLKASDTAMYYCARRRPGQGYFDFWGQGTMVTVSS
VL: EIVLTQSPATLSASPGERATISCRASQSVSSWLAWYQQKPGQAPRSLIYAASNRQSGIPARFSGSGSGTDFTLTISSLEPEDFAVYYCQQYNIYPYTFGQGTRLEIKR
notes: IgG1/kappa
- MFI [1]: 15.8
- MFI [2]: 221
- MFI [3]: 31.8
- MFI [4]: 86.6
- MFI [5]: 31.8
- MFI [6]: 12.3
- MFI [7]: 177
- MFI [8]: 161

B6: ustekinumab (trade name Stelara) (antibody, V domains shown)
VH: EVQLVQSGAEVKKPGESLKISCKGSGYSFTTYWLGWVRQMPGKGLDWIGIMSPVDSDIRYSPSFQGQVTMSVDKSITTAYLQWNSLKASDTAMYYCARRRPGQGYFDFWGQGTLVTVSS
VL: DIQMTQSPSSLSASVGDRVTITCRASQGISSWLAWYQQKPEKAPKSLIYAASSLQSGVPSRFSGSGSGTDFTLTISSLQPEDFATYYCQQYNIYPYTFGQGTKLEIK
- MFI [1]: 13.8
- MFI [2]: 219
- MFI [3]: 28.7
- MFI [4]: 95.7
- MFI [5]: 29.7
- MFI [6]: 9.64
- MFI [7]: 186
- MFI [8]: 160
